Reference: paper PMC9482650, “Quantitative fragmentomics allow affinity mapping of interactomes” (Nature Communications, 2022)

biological target: T1, SIPA1L3, O60292; assay: holdup assay; design: key: below the threshold = too weak to quantify, mostly under pKd 3.1 to 4; details: plain residues with an end cap or a label only (N-terminal biotin on a linker: ttds)
T1 sequence (O60292 961-1052, limits assumed, looked up): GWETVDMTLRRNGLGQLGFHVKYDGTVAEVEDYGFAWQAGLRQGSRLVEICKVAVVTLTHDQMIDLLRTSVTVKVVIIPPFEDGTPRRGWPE

Binder	pKd
QSARYRDTEL [TJP2, Q9UDY2]	below the threshold
SRPQRTQTQV [HPV67-E6, A4U7F2]	below the threshold
SSRTRRETQL [HPV16-E6, P03126]	below the threshold

biological target: AHNAK2, Q8IVF2; assay: holdup assay; design: key: below the threshold = too weak to quantify, mostly under pKd 3.1 to 4; details: plain residues with an end cap or a label only (N-terminal biotin on a linker: ttds)
Sequence (Q8IVF2 108-193): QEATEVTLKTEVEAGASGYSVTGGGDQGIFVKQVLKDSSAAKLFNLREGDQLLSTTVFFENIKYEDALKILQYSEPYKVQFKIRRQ

Binder	pKd
QSARYRDTEL [TJP2, Q9UDY2]	below the threshold
SRPQRTQTQV [HPV67-E6, A4U7F2]	below the threshold
SSRTRRETQL [HPV16-E6, P03126]	below the threshold

biological target: T2, PDZD2_1, O15018; assay: holdup assay; design: key: below the threshold = too weak to quantify, mostly under pKd 3.1 to 4; details: plain residues with an end cap or a label only (N-terminal biotin on a linker: ttds)
T2 sequence (O15018 80-192, limits assumed, looked up): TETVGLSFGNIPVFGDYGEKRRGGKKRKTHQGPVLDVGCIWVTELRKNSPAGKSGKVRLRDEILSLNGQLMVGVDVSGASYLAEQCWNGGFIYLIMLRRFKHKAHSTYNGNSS

Binder	pKd
QSARYRDTEL [TJP2, Q9UDY2]	below the threshold
SRPQRTQTQV [HPV67-E6, A4U7F2]	below the threshold
SSRTRRETQL [HPV16-E6, P03126]	below the threshold

biological target: GIPC3, Q8TF64; assay: holdup assay; design: key: below the threshold = too weak to quantify, mostly under pKd 3.1 to 4; details: plain residues with an end cap or a label only (N-terminal biotin on a linker: ttds)
Sequence (Q8TF64 107-202): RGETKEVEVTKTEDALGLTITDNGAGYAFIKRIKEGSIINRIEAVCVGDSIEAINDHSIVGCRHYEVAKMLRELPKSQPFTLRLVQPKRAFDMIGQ

Binder	pKd
QSARYRDTEL [TJP2, Q9UDY2]	below the threshold
SRPQRTQTQV [HPV67-E6, A4U7F2]	below the threshold
SSRTRRETQL [HPV16-E6, P03126]	below the threshold

biological target: T3, SHROOM2, Q13796; assay: holdup assay; design: key: below the threshold = too weak to quantify, mostly under pKd 3.1 to 4; details: plain residues with an end cap or a label only (N-terminal biotin on a linker: ttds)
T3 sequence (Q13796 21-118, limits assumed, looked up): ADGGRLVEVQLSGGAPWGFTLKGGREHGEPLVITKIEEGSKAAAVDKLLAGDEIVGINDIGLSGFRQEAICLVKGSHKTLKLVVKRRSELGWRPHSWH

Binder	pKd
QSARYRDTEL [TJP2, Q9UDY2]	below the threshold
SRPQRTQTQV [HPV67-E6, A4U7F2]	below the threshold
SSRTRRETQL [HPV16-E6, P03126]	below the threshold

biological target: T4, GIPC1, O14908; assay: holdup assay; design: key: below the threshold = too weak to quantify, mostly under pKd 3.1 to 4; details: plain residues with an end cap or a label only (N-terminal biotin on a linker: ttds)
T4 sequence (O14908 128-223, limits assumed, looked up): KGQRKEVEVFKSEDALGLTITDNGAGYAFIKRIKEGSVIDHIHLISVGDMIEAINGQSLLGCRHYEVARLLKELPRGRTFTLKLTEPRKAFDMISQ

Binder	pKd
QSARYRDTEL [TJP2, Q9UDY2]	below the threshold
SRPQRTQTQV [HPV67-E6, A4U7F2]	below the threshold
SSRTRRETQL [HPV16-E6, P03126]	4.13

biological target: T5, PDZD7_1, Q9H5P4; assay: holdup assay; design: key: below the threshold = too weak to quantify, mostly under pKd 3.1 to 4; details: plain residues with an end cap or a label only (N-terminal biotin on a linker: ttds)
T5 sequence (Q9H5P4 81-178, limits assumed, looked up): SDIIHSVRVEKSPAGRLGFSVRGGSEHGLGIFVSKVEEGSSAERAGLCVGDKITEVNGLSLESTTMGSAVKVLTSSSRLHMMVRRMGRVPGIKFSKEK

Binder	pKd
QSARYRDTEL [TJP2, Q9UDY2]	below the threshold
SRPQRTQTQV [HPV67-E6, A4U7F2]	below the threshold
SSRTRRETQL [HPV16-E6, P03126]	below the threshold

biological target: T6, PDZRN3_2, Q9UPQ7; assay: holdup assay; design: key: below the threshold = too weak to quantify, mostly under pKd 3.1 to 4; details: plain residues with an end cap or a label only (N-terminal biotin on a linker: ttds)
T6 sequence (Q9UPQ7 414-513, limits assumed, looked up): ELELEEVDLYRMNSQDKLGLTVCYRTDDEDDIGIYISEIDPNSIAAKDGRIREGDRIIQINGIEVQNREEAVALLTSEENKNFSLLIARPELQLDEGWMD

Binder	pKd
QSARYRDTEL [TJP2, Q9UDY2]	below the threshold
SRPQRTQTQV [HPV67-E6, A4U7F2]	below the threshold
SSRTRRETQL [HPV16-E6, P03126]	below the threshold

biological target: T7, PREX2_2, Q70Z35; assay: holdup assay; design: key: below the threshold = too weak to quantify, mostly under pKd 3.1 to 4; details: plain residues with an end cap or a label only (N-terminal biotin on a linker: ttds)
T7 sequence (Q70Z35 672-764, limits assumed, looked up): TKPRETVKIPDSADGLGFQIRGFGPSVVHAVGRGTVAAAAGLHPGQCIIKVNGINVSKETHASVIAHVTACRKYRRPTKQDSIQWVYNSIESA

Binder	pKd
QSARYRDTEL [TJP2, Q9UDY2]	below the threshold
SRPQRTQTQV [HPV67-E6, A4U7F2]	below the threshold
SSRTRRETQL [HPV16-E6, P03126]	below the threshold

biological target: T8, USH1C_2, Q9Y6N9; assay: holdup assay; design: key: below the threshold = too weak to quantify, mostly under pKd 3.1 to 4; details: plain residues with an end cap or a label only (N-terminal biotin on a linker: ttds)
T8 sequence (Q9Y6N9 206-303, limits assumed, looked up): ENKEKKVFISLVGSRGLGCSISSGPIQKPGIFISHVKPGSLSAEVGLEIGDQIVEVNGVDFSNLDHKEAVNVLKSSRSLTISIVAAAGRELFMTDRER

Binder	pKd
QSARYRDTEL [TJP2, Q9UDY2]	below the threshold
SRPQRTQTQV [HPV67-E6, A4U7F2]	below the threshold
SSRTRRETQL [HPV16-E6, P03126]	3.92

biological target: T9, DVL1, O14640; assay: holdup assay; design: key: below the threshold = too weak to quantify, mostly under pKd 3.1 to 4; details: plain residues with an end cap or a label only (N-terminal biotin on a linker: ttds)
T9 sequence (O14640 246-333, limits assumed, looked up): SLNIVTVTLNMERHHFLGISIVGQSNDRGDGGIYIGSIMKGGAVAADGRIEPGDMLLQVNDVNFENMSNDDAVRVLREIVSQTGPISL

Binder	pKd
QSARYRDTEL [TJP2, Q9UDY2]	below the threshold
SRPQRTQTQV [HPV67-E6, A4U7F2]	below the threshold
SSRTRRETQL [HPV16-E6, P03126]	below the threshold

biological target: PDZD9, Q8IXQ8; assay: holdup assay; design: key: below the threshold = too weak to quantify, mostly under pKd 3.1 to 4; details: plain residues with an end cap or a label only (N-terminal biotin on a linker: ttds)
Sequence (Q8IXQ8 23-120): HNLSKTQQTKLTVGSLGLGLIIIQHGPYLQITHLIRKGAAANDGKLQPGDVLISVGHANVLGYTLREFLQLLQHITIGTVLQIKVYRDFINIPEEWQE

Binder	pKd
QSARYRDTEL [TJP2, Q9UDY2]	below the threshold
SRPQRTQTQV [HPV67-E6, A4U7F2]	below the threshold
SSRTRRETQL [HPV16-E6, P03126]	4.06

biological target: T10, PDLIM3, Q53GG5; assay: holdup assay; design: key: below the threshold = too weak to quantify, mostly under pKd 3.1 to 4; details: plain residues with an end cap or a label only (N-terminal biotin on a linker: ttds)
T10 sequence (Q53GG5 1-94, limits assumed, looked up): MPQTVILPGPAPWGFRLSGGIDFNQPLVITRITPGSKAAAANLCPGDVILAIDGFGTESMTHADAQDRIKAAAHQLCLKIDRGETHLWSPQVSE

Binder	pKd
QSARYRDTEL [TJP2, Q9UDY2]	below the threshold
SRPQRTQTQV [HPV67-E6, A4U7F2]	below the threshold
SSRTRRETQL [HPV16-E6, P03126]	3.88

biological target: PARD3B_3, Q8TEW8; assay: holdup assay; design: key: below the threshold = too weak to quantify, mostly under pKd 3.1 to 4; details: plain residues with an end cap or a label only (N-terminal biotin on a linker: ttds)
Sequence (Q8TEW8 490-594): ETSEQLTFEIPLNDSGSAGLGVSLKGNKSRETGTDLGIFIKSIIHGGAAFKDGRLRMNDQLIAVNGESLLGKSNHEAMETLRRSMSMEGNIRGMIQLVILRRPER

Binder	pKd
QSARYRDTEL [TJP2, Q9UDY2]	below the threshold
SRPQRTQTQV [HPV67-E6, A4U7F2]	below the threshold
SSRTRRETQL [HPV16-E6, P03126]	below the threshold

biological target: CARD14, Q9BXL6; assay: holdup assay; design: key: below the threshold = too weak to quantify, mostly under pKd 3.1 to 4; details: plain residues with an end cap or a label only (N-terminal biotin on a linker: ttds)
Sequence (Q9BXL6 558-663): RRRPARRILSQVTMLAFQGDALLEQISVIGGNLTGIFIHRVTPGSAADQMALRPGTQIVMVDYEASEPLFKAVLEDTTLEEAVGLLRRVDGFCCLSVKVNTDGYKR

Binder	pKd
QSARYRDTEL [TJP2, Q9UDY2]	below the threshold
SRPQRTQTQV [HPV67-E6, A4U7F2]	below the threshold
SSRTRRETQL [HPV16-E6, P03126]	below the threshold

biological target: T11, TJP3_2, O95049; assay: holdup assay; design: key: below the threshold = too weak to quantify, mostly under pKd 3.1 to 4; details: plain residues with an end cap or a label only (N-terminal biotin on a linker: ttds)
T11 sequence (O95049 190-282, limits assumed, looked up): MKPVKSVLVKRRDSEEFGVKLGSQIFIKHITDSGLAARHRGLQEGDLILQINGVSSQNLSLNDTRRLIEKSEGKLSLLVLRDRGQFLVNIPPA

Binder	pKd
QSARYRDTEL [TJP2, Q9UDY2]	below the threshold
SRPQRTQTQV [HPV67-E6, A4U7F2]	below the threshold
SSRTRRETQL [HPV16-E6, P03126]	below the threshold

biological target: PDZRN4_2, Q6ZMN7; assay: holdup assay; design: key: below the threshold = too weak to quantify, mostly under pKd 3.1 to 4; details: plain residues with an end cap or a label only (N-terminal biotin on a linker: ttds)
Sequence (Q6ZMN7 389-498): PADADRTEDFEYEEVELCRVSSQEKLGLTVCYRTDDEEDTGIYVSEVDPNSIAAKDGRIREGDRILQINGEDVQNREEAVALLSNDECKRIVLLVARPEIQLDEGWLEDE

Binder	pKd
QSARYRDTEL [TJP2, Q9UDY2]	below the threshold
SRPQRTQTQV [HPV67-E6, A4U7F2]	below the threshold
SSRTRRETQL [HPV16-E6, P03126]	below the threshold

biological target: T12, MPDZ_13, O75970; assay: holdup assay; design: key: below the threshold = too weak to quantify, mostly under pKd 3.1 to 4; details: plain residues with an end cap or a label only (N-terminal biotin on a linker: ttds)
T12 sequence (O75970 1982-2070, limits assumed, looked up): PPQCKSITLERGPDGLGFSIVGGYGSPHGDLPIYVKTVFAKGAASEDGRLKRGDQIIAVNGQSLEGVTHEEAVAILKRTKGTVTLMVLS

Binder	pKd
QSARYRDTEL [TJP2, Q9UDY2]	below the threshold
SRPQRTQTQV [HPV67-E6, A4U7F2]	below the threshold
SSRTRRETQL [HPV16-E6, P03126]	below the threshold

biological target: T13, USH1C_3, Q9Y6N9; assay: holdup assay; design: key: below the threshold = too weak to quantify, mostly under pKd 3.1 to 4; details: plain residues with an end cap or a label only (N-terminal biotin on a linker: ttds)
T13 sequence (Q9Y6N9 447-547, limits assumed, looked up): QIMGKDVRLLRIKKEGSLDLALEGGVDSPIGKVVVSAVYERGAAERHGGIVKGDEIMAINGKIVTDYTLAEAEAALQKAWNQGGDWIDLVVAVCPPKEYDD

Binder	pKd
QSARYRDTEL [TJP2, Q9UDY2]	below the threshold
SSRTRRETQL [HPV16-E6, P03126]	below the threshold

biological target: T14, PDZD8, Q8NEN9; assay: holdup assay; design: key: below the threshold = too weak to quantify, mostly under pKd 3.1 to 4; details: plain residues with an end cap or a label only (N-terminal biotin on a linker: ttds)
T14 sequence (Q8NEN9 361-459, limits assumed, looked up): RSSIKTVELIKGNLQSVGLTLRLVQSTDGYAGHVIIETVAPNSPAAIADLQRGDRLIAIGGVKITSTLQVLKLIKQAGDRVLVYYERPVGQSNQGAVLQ

Binder	pKd
QSARYRDTEL [TJP2, Q9UDY2]	below the threshold
SRPQRTQTQV [HPV67-E6, A4U7F2]	below the threshold
SSRTRRETQL [HPV16-E6, P03126]	below the threshold

biological target: LIMK1, P53667; assay: holdup assay; design: key: below the threshold = too weak to quantify, mostly under pKd 3.1 to 4; details: plain residues with an end cap or a label only (N-terminal biotin on a linker: ttds)
Sequence (P53667 155-268): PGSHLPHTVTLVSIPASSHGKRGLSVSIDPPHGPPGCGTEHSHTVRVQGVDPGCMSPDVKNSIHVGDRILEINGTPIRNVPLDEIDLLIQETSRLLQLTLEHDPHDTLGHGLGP

Binder	pKd
QSARYRDTEL [TJP2, Q9UDY2]	below the threshold
SRPQRTQTQV [HPV67-E6, A4U7F2]	below the threshold
SSRTRRETQL [HPV16-E6, P03126]	below the threshold

biological target: DVL2, O14641; assay: holdup assay; design: key: below the threshold = too weak to quantify, mostly under pKd 3.1 to 4; details: plain residues with an end cap or a label only (N-terminal biotin on a linker: ttds)
Sequence (O14641 260-359): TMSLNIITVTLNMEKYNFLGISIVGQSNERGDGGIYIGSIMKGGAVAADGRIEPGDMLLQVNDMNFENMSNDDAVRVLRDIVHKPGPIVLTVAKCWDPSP

Binder	pKd
QSARYRDTEL [TJP2, Q9UDY2]	below the threshold
SRPQRTQTQV [HPV67-E6, A4U7F2]	below the threshold
SSRTRRETQL [HPV16-E6, P03126]	below the threshold
